From article PMC12288907 (JCI Insight, 2025) come the findings set out here.

Holding throughout (experiment): ELISA
What all share (conditions): both partners purified
For orientation: An ELISA detects its analyte on a solid surface through an enzyme-linked reagent.

Assay [1] addresses recombinant soluble trimeric H7 HA of A/Netherlands/219/2003 H7N7 (NL03 H7) (Influenza A virus …, UniProt Q6VMK1, strain).
In assay [2] the target is recombinant soluble trimeric H15 HA of A/shearwater/Western Australia/2576/1979 H15N9 (wtWA79 H15) (Influenza A virus A/wedge-tailed …, UniProt Q20ND8, strain).
Assay [3] deals with recombinant soluble trimeric H15 HA of A/shearwater/Western Australia/2576/1979 H15N9 (Influenza A virus A/wedge-tailed …, UniProt Q20ND8, strain).
Assay [4] deals with recombinant soluble trimeric H7 HA of A/Netherlands/219/2003 H7N7 (Influenza A virus …, UniProt Q6VMK1, strain).

Numbering of substitutions follows the chain as printed.

B1: recombinant H7-235 IgG1 (rH7-235 IgG1) (antibody, V domains shown)
VH: QVQLVESGGGVVQPGESLRLSCAASGFAFRTYGMHWVRQAPGKGLEWVGVIWYDGSNKYYGDSVKGRFTISRDNSQNTLYLQMNSLRAEDTAVYYCARNGERWRVEDYYYGMDVWGQGTLVTVSS
VL: EIVMTQSPLSLPVTPGEPASISCRSSQSLLHSNAHNYLDWYLQKPGQSPQLLIYLGSNRASGVPDRFSGSGSGTDFTLKISRVEAEDVGIYYCMQALQTPITFGQGTRLEIK
notes: IgG1; also called rH7-235 mAb; mAb H7-235; copies: 2 + 2
With B1, the binding result in assay [1] is “binds”; in assay [2], “no binding”.

B2: rH7-235rev IgG1 (germline revertant form of rH7-235 IgG) (antibody, V domains shown)
VH: B1 VH with E16R, A28T, R30S, T31S, G49A, G61A, Q76K
VL: not shown
Take B2: the binding result in assay [3] and in assay [4] was “no binding (tested: >10,000 ng/mL)” throughout.

B3: rH7-235 IgG1 (recombinant human monoclonal antibody H7-235) (antibody, V domains shown)
VH: B1 VH
VL: B1 VL
notes: also called mAb H7-235; source: Expi293F, transient transfection, purified (MabSelect Sure)
As to B3, the binding result in assay [3] was “no binding (tested: >10,000 ng/mL)”.
